T1: SC35 (GST-SC35) (Populus tomentosa, UniProt A0AAD6QWB7 1-302)
T1 sequence: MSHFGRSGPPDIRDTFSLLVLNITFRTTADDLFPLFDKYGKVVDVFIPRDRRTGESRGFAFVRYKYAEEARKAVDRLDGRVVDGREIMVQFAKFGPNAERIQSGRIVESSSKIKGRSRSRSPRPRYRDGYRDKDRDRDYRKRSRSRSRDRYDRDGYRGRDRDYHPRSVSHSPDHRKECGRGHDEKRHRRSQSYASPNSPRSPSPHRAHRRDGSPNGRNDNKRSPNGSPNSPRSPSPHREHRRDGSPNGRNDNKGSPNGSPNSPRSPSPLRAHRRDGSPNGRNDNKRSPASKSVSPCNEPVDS


target: T1, SC35 (GST-SC35); experiment: EMSA

Does UUAGAGAGAGUCCUUAAUCUGGGUUUGGUU (ssRNA) [Mutation-Probe2] bind?
Result: no binding

Does UUAGAGAGAGUGGAAUUAGUGGGUUUGGUU (ssRNA) [Probe2] bind?
Result: binds

Does CAUUAUGUUGACCUUAAUCAAGAUAAGGUG (ssRNA) [Mutation-Probe1] bind?
Result: no binding

Does CAUUAUGUUGAGGAAUUAGAAGAUAAGGUG (ssRNA) [Probe1] bind?
Result: binds
